From PMC7393355, “A FRET-based screening method to detect potential inhibitors of the binding of CNNM3 to PRL2” (Scientific Reports, 2020)

Test system: binding of CNNM3-YPet and CyPet-PRL2 (CNNM3-PRL2 complex)
Experiment: FRET-based inhibition test of the binding of CNNM3-YPet and CyPet-PRL2
Parameters: species or system human
Settings: CNNM3-YPet 200 nM, CyPet-PRL2 200 nM, n = 6; for FRET intensity abolished / inhibition of complex formation: pre-incubated 20 min R.T. with binding partner, TBS pH 8.0, mean
Experimental: FRET measurements were conducted in TBS (50 mM Tris–HCl (pH 8.0) and 150 mM NaCl). Proteins were mixed in 96-well plates and incubated at R.T. for 1 h. Fluorescence intensities were measured using an excitation wavelength of 435 nm and an emission wavelength of 530 nm with a Cytation 3 (BioTek).
The emission spectra were measured with each component at 200 nM using the Cytation 3 (BioTek) with 435 nm excitation (Supplementary Fig. 2), and the original data are shown in Supplementary Table 1. The FRET intensity was calculated by Eq. (1).1 IFRET=IA-raw-Dleakage-Adirect where IA-raw is the intensity measured at 530 nm with 435 nm excitation, Dleakage is the leakage of the donor emission into the acceptor wavelength (530 nm) upon donor excitation, and Adirect is the direct excitation of the acceptor with the donor wavelength (435 nm).
The inhibition of complex formation was assayed by pre-incubating the binding partner (200 nM) with inhibitory factors (1, 10 μM) for 20 min at R.T., followed by addition of the other protein (200 nM) (Figs. 3B, 4C). The effects of divalent cations (10 mM) and nucleotides (3 mM) were also assayed similarly (Fig. 5).
The peptides for the peptide inhibition test were synthesized by Shanghai Dechi Biosciences (Fig. 6C,D). The peptide sequences were as follows: peptide 1, IVQKVNNEGEGDPFYEVLG; peptide 2, […] (an S–S bond was formed between the cysteine residues, as verified by HPLC and mass spectrometry). The peptides were dissolved in TBS buffer at 10 mM before use.
FRET data were evaluated by subtracting backgrounds (fluorescence intensities of CyPet-PRL2, CNNM3-YPet and a blank well). All data analysis was performed using GraphPad Prism 6 (GraphPad Software) with the methods described in each legend.

| Molecule | FRET intensity abolished / inhibition of complex formation (inhibitory protein 1 μM) [%] | FRET intensity abolished / inhibition of complex formation (inhibitory protein 10 μM) [%] | effect of added protein on FRET intensity (in words) (inhibitory protein 1 and 10 μM) |
| --- | --- | --- | --- |
| CNNM3 CBS domain D426A mutant: CNNM3 CBS domain with D426A mutation at the PRL2-binding site (protein, left off: His tag (from the vector pET28a and the Ni-NTA purification), end not stated, state not stated) YSDLSKGVLRCRTVEDVLTPLEDCFMLDASTVLDFGVLASIMQSGHTRIPVYEEERSNIVDMLYLKDLAFVDPEDCTPLSTITRFYNHPLHFVFNDTKLDAVLEEFKRGKSHLAIVQKVNNEGEGAPFYEVLGLVTLEDVIEEIIRSEILDE |  | 12.9 | little effect on the FRET intensity |
| PRL1: purified non-fluorescence protein-tagged human PRL1 (protein) MARMNRPAPVEVTYKNMRFLITHNPTNATLNKFIEELKKYGVTTIVRVCEATYDTTLVEKEGIHVLDWPFDDGAPPSNQIVDDWLSLVKIKFREEPGCCIAVHCVAGLGRAPVLVALALIEGGMKYEDAVQFIRQKRRGAFNSKQLLYLEKYRPKMRLRFKDSNGHRNNCCIQ | 61.6 | 90.0 |  |

Further lines, results first:

| FRET intensity abolished / inhibition of complex formation (inhibitory protein 1 μM) [%] | FRET intensity abolished / inhibition of complex formation (inhibitory protein 10 μM) [%] | effect of added protein on FRET intensity (in words) (inhibitory protein 1 and 10 μM) | Molecule |
| --- | --- | --- | --- |
| 77.7 | 89.2 |  | non-YPet-tagged CNNM3: purified non-fluorescence-tagged CBS domain of human CNNM3 (protein, left off: His tag (from the vector pET28a and the Ni-NTA purification), end not stated, state not stated) YSDLSKGVLRCRTVEDVLTPLEDCFMLDASTVLDFGVLASIMQSGHTRIPVYEEERSNIVDMLYLKDLAFVDPEDCTPLSTITRFYNHPLHFVFNDTKLDAVLEEFKRGKSHLAIVQKVNNEGEGDPFYEVLGLVTLEDVIEEIIRSEILDE |
| 85.5 | 89.7 |  | PRL2: purified non-fluorescence protein-tagged human PRL2 (residues 1–167) (protein, left off: His tag (from the vector pET28a and the Ni-NTA purification), end not stated, state not stated) MNRPAPVEISYENMRFLITHNPTNATLNKFTEELKKYGVTTLVRVCDATYDKAPVEKEGIHVLDWPFDDGAPPPNQIVDDWLNLLKTKFREEPGCCVAVHCVAGLGRAPVLVALALIECGMKYEDAVQFIRQKRRGAFNSKQLLYLEKYRPKMRLRFRDTNGHCCVQ |
